This note sets out measurements from paper PMC6827484 (Methods in molecular biology (Clifton, N.J.), 2019).

For this assay, the target named is target antigen of trastuzumab on the target cells (UniProt P04626). Briefly: flow cytometry on cells.

B1: meditope-enabled trastuzumab (antibody, V domains shown)
VH: not shown
VL: DIQMTQSPILLSASVGDRVTITCRASQDVNTAVAWYQQRTNGSPRLLIYSASFLYSGVPSRFSGSRSGTDFTLTISSLQPEDIADYYCQQHYTTPPTFGAGTKVEIK
On to B1, for which the binding result is recorded as “binds”.
